B1: pyocin R2 sheath protein (natural protein)
chain: MSFFHGVTVTNVDIGARTIALPASSVIGLCDVFTPGAQASAKPNVPVLLTSKKDAAAAFGIGSSIYLACEAIYNRAQAVIVAVGVETAETPEAQASAVIGGISAAGERTGLQALLDGKSRFNAQPRLLVAPGHSAQQAVATAMDGLAEKLRAIAILDGPNSTDEAAVAYAKNFGSKRLFMVDPGVQVWDSATNAARNAPASAYAAGLFAWTDAEYGFWSSPSNKEIKGVTGTSRPVEFLDGDETCRANLLNNANIATIIRDDGYRLWGNRTLSSDSKWAFVTRVRTMDLVMDAILAGHKWAVDRGITKTYVKDVTEGLRAFMRDLKNQGAVINFEVYADPDLNSASQLAQGKVYWNIRFTDVPPAENPNFRVEVTDQWLTEVLDVA
B2: pyocin R2 tube protein (natural protein)
chain: MIPQTLTNTNLFIDGVSFAGDVPSLTLPKLAVKTEQYRAGGMDAPVSIDMGLEAMEAKFSTNGARREALNFFGLADQSAFNGVFRGSFKGQKGASVPVVATLRGLLKEVDPGDWKAGEKAEFKYAVAVSYYKLEVDGREVYEIDPVNGVRAINGVDQLAGMRNDLGL

Target: the molecule itself
Assay: cryo-EM structure

Protein | binding result | stoichiometry N
B1 | binds | –
B2 | – | 6

— article PMC4445970 (Nature structural & molecular biology, 2015)
